{"source": "patent US20120165211A1", "about": "“Human Antibodies Cross-Reacting With A Bacterial And A Self Antigen From Atherosclerotic Plaques” (priority 2007, published 2012)", "molecules": {"B1": {"name": "Fab7816: human recombinant Fab from coronary plaque library ID11LIB; heavy chain SEQ ID NO:2, light chain SEQ ID NO:4 (antibody, listed as Homo sapiens, V domains shown)", "VH": "LESGPGQVKPSQTLSLTCTVSGGSIGSGSYSWNWIRQPAGRGLEWIGRISDSGNTNFNPSLKSRVTMSVDTSKNQFALKLTSVTAADTATYFCARGRGILTGLFDYWGQGSLVSVSSASTKGPSVFPLAPSSKSTSGGTAALGCLVKD", "VL": "SPDSLAVSPGGRATIKCASSQSVLDNSNHKNSLAWYQQKPGLPPKLLIYWASTRYSGVPDRFSGSGSGTDFTLTINNLQAADVAVYFCQQYYSTPWTFGQGTKVE"}}, "key": {"[1]": {"test_system": "antigen present in Proteus mirabilis", "experiment": "Western blot assay on pathogen lysates", "assay_type": "binding", "conditions": "Fab 10 μg/ml; 8 μg total protein lysate per well", "protocol": "(§1) Bacterial cell lysates were carried out inoculating a colony or a scratch in 10 ml of SB and growing bacteria at 37° C. overnight. Cultures of Staphylococcus aureus, Proteus mirabilis, Klebsiella pneumoniae, Enterococcus cloacae, Streptococcus pyogenes, Neisseriae gonhorreae, Listeria monocytogenes were grown. Overnight cultures were harvested by centrifugation (4500 RPM for 10 min.) and then resuspended in 1 ml of RIPA buffer and protease inhibitor PMSF (1 mM final). After three cycles of freeze-and-thawing (37° C. and −80° C.) and one cycle of sonication (90 sec at max power) the lysate was cleared by centrifugation (15000 RPM at 4° C. for 20 min) Moreover one colony of Haemophilus influenzae was seeded on blood agar plates and then grown at 37° C. overnight. Haemophilus inluenzae colonies were collected and resuspended in 500 μl of RIPA/PMSF. All lysates were stored at −20° C. until usage.\n(§2) Lysates from Listeria monocitogenes, Streptococcus pyogenes, Staphylococcus aureus, Enterococcus cloacae, Haemophilus influenzae, Proteus mirabilis, Escherichia coli, Klebsiella pneumoniae, were prepared as described in Example II. SDS-PAGE was performed according to standard techniques. Briefly, protein concentration of all lysates was determined by BCA kit (Pierce) according to manufacturer instruction. SDS-PAGE loading buffer was added to protein lysates before heating at 90° C. for 5 min. […]"}, "[2]": {"test_system": "antigen present in Klebsiella pneumoniae", "experiment": "Western blot assay on pathogen lysates", "assay_type": "binding", "conditions": "Fab 10 μg/ml; 8 μg total protein lysate per well", "protocol": "as §1, §2"}, "[3]": {"target": "T1, recombinant transgelin (rTAGLN) (Homo sapiens, UniProt Q01995)", "T1 construct": "purchased Origene TP302448", "T1 sequence (Q01995 whole entry)": "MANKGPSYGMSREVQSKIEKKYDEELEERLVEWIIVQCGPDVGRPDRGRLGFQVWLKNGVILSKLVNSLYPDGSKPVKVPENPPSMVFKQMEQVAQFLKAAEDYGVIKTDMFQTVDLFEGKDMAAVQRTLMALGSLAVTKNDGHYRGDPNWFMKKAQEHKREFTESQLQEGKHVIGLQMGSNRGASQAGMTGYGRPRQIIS", "assay_type": "binding", "conditions": "4-500 ng rTAGLN per well"}, "[4]": {"test_system": "antigen in the carotid lysate", "experiment": "Western blotting on carotid lysates", "assay_type": "binding, human", "conditions": "Fab 10 μg/ml; protein extracts 20 μg/lane", "protocol": "Carotid plaques were macrodissected in 2 mm-thick rings and frozen in isopentane/liquid nitrogen. Every ring was considered as a single specimen. For each patient proteins were extracted from a stenotic and a non-stenotic ring by tissue homogenization in RIPA lysis buffer. The protein content of carotid plaque homogenates was quantified by Bradford assay. Western blot was performed on protein extracts (20 μg/lane) by using 10% Sodium Dodecyl Sulphate-PolyAcrylamide Gel Electrophoresis (SDS-PAGE). SDS-PAGE loading buffer was added to protein lysates before heating at 90° C. for 5 min. Gel was run for about 2 hours at 120V. […] Target (7816-FLAG) and reference proteins (bActin) were detected with specific antibodies (anti-FLAG clone M2 followed by Rabbit-anti Mouse IgG-HRP, and Rabbit-anti Mouse IgG-HRP, respectively—all from Sigma (cod: A9917, St. Louis, Mo.). The membrane was developed by SuperSignal West Pico Chemiluminescent Substrate (Pierce) according to the manufacture instructions. The mean pixel optical density (OD) for each band of the target protein, determined by densitometry, was normalized vs. β-Actin, to evaluate its quantity with respect to carotid plaque total cells. Stenotic and non stenotic rings from stable and unstable (determined by US) carotid plaque specimens were compared."}, "purified OmpK36": {"target": "T2, purified OmpK36 (Klebsiella pneumoniae, UniProt Q48473)", "T2 construct": "made in house; host or cells: E. coli BL21 (DE3), pET28b (BamHI/XhoI cloning)", "experiment": "Western blot of purified OmpK36 with recombinant Fabs", "assay_type": "binding", "conditions": "400 ng OmpK36His per lane; Fabs at 10 μg/L; blocking PBS/BSA10%", "protocol": "400 ng of purified OmpK36His was loaded on polyacrylamide gel (all lanes) and SDS-PAGE was performed. Proteins were blotted on PVDF membrane for 2 h at 350 mA. After blocking with PBS/BSA10% the membrane was cut to single lanes and each lane was incubated for 1 h with Fabs at 10 μg/L. After three washes membrane was incubated with anti-Human Light Chain K antibody (Sigma)."}, "carotid plaque": {"test_system": "carotid plaque", "experiment": "Immunohistology (immunofluorescence) on carotid plaque sections", "assay_type": "binding, human", "conditions": "7816Fab-FLAG detected with anti-FLAG clone M2 and anti-Mouse IgG AlexaFluor488", "protocol": "Carotid plaques harvested during TEA surgery, just after excision were fixed in 4% paraformaldehyde in PBS, cut in consecutive 2 mm thick rings, decalcified in EDTA solution when required, cryoprotected in 10% sucrose in PBS, embedded in OCT compound, then snap frozen in isopentane/liquid nitrogen and stored at −80° C. Cryosections ([…]) were cut from every ring and stained with either Hematoxylin/Eosin or Movat's pentachrome, thus the morphology was examined in at least 4 sections/ring using an Eclipse 55i microscope equipped with DS-L1 camera and LUCIA 4.82 software (all from Nikon, Tokyo, J). Multiple images collected from each ring, were composed by LUCIA 4.82 software, to obtain a whole section picture. The presence of thin cap, foam cells, fibrolipids, ulcerations, necrotic/thrombotic core, calcifications, hemorrhage/thrombosis and inflammatory infiltrate were used to classify carotid plaques as stable, vulnerable, or unstable, following Virmani's modified AHA classification. Additional sections (10 μm thick) from rings with and without atheroma were selected and submitted for immunolabeling with anti CD138 antibody or with 7816Fab-FLAG detected with anti-FLAG clone M2 followed by rabbit-anti-Mouse IgG AlexaFluor488. DAPI stained the nuclei. […] The nuclear fluorescence was due to DAPI staining."}}, "note": "“Also recorded” adds a separate entry of the source.", "data": [{"molecule": "B1", "values": [{"measurement": "binding in Western blot on Proteus mirabilis lysate", "setting": "[1]", "result": "binds specifically; also recorded: recognizes with high specificity and affinity"}, {"measurement": "binding in Western blot on Klebsiella pneumoniae lysate", "setting": "[2]", "result": "binds specifically; also recorded: recognizes with high specificity and affinity"}, {"measurement": "binding to human transgelin in Western blot", "setting": "[3]", "result": "recognize human transgelin"}, {"measurement": "binding in Western blot on carotid lysate", "setting": "[4]", "result": "binding with an antigen in the carotid lysate"}, {"measurement": "reactivity with purified OmpK36 in western-blot", "setting": "purified OmpK36", "result": "react with purified OmpK36"}, {"measurement": "immunofluorescence staining of carotid plaque sections", "setting": "carotid plaque", "result": "specific immonostaining, mainly cytoplasmic"}]}]}
